Substrate in data set [1]: CCn1c(=NN=c2sc3cc(S(=O)(=O)O)ccc3n2CC)sc2cc(S(=O)(=O)O)ccc21
In words: purified protein. The settings on record: O2, 50 mM sodium acetate, pH 5, 30 °C, 0.1 μM sLac.

Substrate in data set [2]: COc1cccc(OC)c1O
The data set is described as follows: purified protein. It counts as biochemical, Amycolatopsis sp. ATCC 39116. The settings on record: O2, 50 mM Tris-HCl, pH 8, 30 °C, 0.1 μM sLac.

B1: sLac (Amycolatopsis sp. ATCC 39116) (protein)
chain: QGTTRRITMYAEKISDELYGYGLAPGGATVPGPVLEMWEGDTLEIDLVNTTDRVLSLHPHGVDYDVNSDGTLMNGSAVMPGQTRRYTWRSHVGYRRADGSWAEGTAGYWHYHDHAMGTEHGTEGVLKGLYGALVVRRQGDLLPKRQFTVVFNDMMINNRAHHDAPTFEANLGERVEWIAIGHGSNFHTFHLHGHRWLDNRTGMRTSEYDPSPLIDIKDLNPGVSFGFQVIAGEGVGPGMWMYHCHVQNHSDMGMAGMFLVRNADGTMPAGVHEH
notes: residues 6-279, putative N-terminal TAT signal removed, TEV-cleavable N-terminal poly-His tag (cleavage not mentioned), pET15a(+), E. coli Rosetta BL21(DE3)pLysS; forward primer […] encodes MQGTTRRI; reverse primer encodes C-terminal ...VHEH
For the protein B1, in “purified protein [1]”, the Km (as a rule, the concentration of substrate that gives half-maximal velocity) is 500 ± 40 µM and the kcat – broadly, the maximal rate divided by the concentration of active sites – amounted to 7 ± 0.3 s⁻¹. In “purified protein [2]”, the Km was 3000 ± 100 µM and the kcat stood at 0.5 ± 0.07 s⁻¹.

For the origin of these results see PMC5294454, “Enhanced delignification of steam-pretreated poplar by a bacterial laccase” (Scientific Reports, 2017).
